From the NTF2 design screens of Basanta et al. (2020)

test: protease stability score; higher = more stable; yeast display proteolysis, trypsin and chymotrypsin;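 further: relative to predicted unfolded state with 0 unfolded-like and 1 meaning tenfold more protease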

Sequence | protease stability score
SEDEEDAERLIRELEHAWHTGDEKYLWEMIDPHARFIIGDKEFHGRDLQLRILHRLIKELGVSRFELHIEHFEVIDGRLHTEGRLNVNGRILKTHLILRKIDGRWLIKSDELR | 1.49
SEEKELLEKISELLLKLLKTGDEETWNKLADPNMRLNVNGKDVHGWHKMIKLRHEVWEKLGIDHLEVKTIDIINGRVRIESRLVVNGRFIHIELEFHVINGRNEEEHLFVR | 0.418
SEDTRIAEELWRIMMDADRTGDEDRSKEMIDPNTQFIFNGRDVIGREVWAELFLRIDHIHLRDVEIHDSEVFNGKIHIDGHVDQEIRIGDKTLVEKVKVELIVLKINGKWLLKEVRFH | 1.35
DDHHELLKRMMDIIKEQFLTGDWEEHRRMADPHVKVIINGVQLIGWEHIRRFEEEMRRQWRIHHVEDKDERYFEGRAHVHSEIDGEFDGKREIHHSVIHLHVVNGRLKRLELRFE | 1.28
HEEEEREKEISDTFLMAWRTGDWKFFHELADPHVRVEIGDKRFIGRELLTKHMRHNVNKVKGMTHTLTHIIIQGDKIHLDGELIVDGRSHKVDFHIIVIDGRLHSLHVIIS | 0.574
HEEEELLERAMKELEHILRTGDWELHEKNADPHVKLDVNGRIVHGRELVITVLRRLFEELGVDHIHLHDFKVVGDKMHIDLRIHVGDKEFQLEIIIIKIDGRWHIHSERFN | 0.363
DEEEEIARRIFKIFVHNVLTGDEDSLRKMIDPNTRLHVDGQELHGREQALTFLHEMRIDHMELRELRVIDGRIISHIRVDGEINGRRRDIQTEIILYKVDGRWVIRQMRFQ | 2.39
DEDTREKRRILEESLHIFETGDWEAMLKNADPNVRSEIHIGDKRLEFHGMRNWLEEWLTRLEKIKNMTFRIHDIRRQGDKVHIDGDLHVNGKHSKVRIELIIVDGVIHTLFFFDH | 0.953
DEDTHRLELVLDLWSFAMLTGDEETLTKLIDPNMRIEIGDKIAHGREKLHEMLREIRIQIHHVHLDDYRVYGNKITLHVHIRMTLHVDGRTIHTELKTEIIIHKIDGKWVFHKVRFE | 1.28
DEDDEHTHEMLKLVITAINTGDFEKWRHMADPNVRSDIDGQEVHGRETIIEVWRRIEKELGIENVEVHTRRVEVINGVAHIDGHIRFNGRTHKVRIEVYLINGKIQEFVLSRH | 1.45
DEEKEFAEIYLRRLEELYNTGDEEIEHDLLDPHVRINIGNKHIHGREQYIEHWRKLLIILGIERFTIHVRIKDVRIQGEFAHLDGRLELRVGDKRRTLDVELIILKVNGRWVNKHIHFL | 0.888
SEEDRSSREAVEIYIWIIETGDEHLMEEFLDPHVRSHQGEFHSHGREVAHVYVKKFKNLKVRVREVRTQGDKVIIISEMRIGDFRLELTIIIWKYNGKWIVQEVDIK | 1.67
DEILHAWSRALTILLEIWKTGNEEEVEKMFDPNTRLIIGDKILHGREHIEDFVRRVDVADMHEFRVHDSHKYGEKIDIDGHVTGRLVIGDKEVRQETRVRSIIIKVDGKWIIHRLTFI | 0.907
DDRERLTKLMSDDFIFSMLTGDEHFMHELIDPHARFLFNGQVHHGWKTMEFWREHLGIDNIHLQIRISDLEIQGDKATVRIDGEVKQGDKSFRTRFIIKVDKIDGRWVIHELRIIVL | 1.07
DESEELAERLLEEMEELILTGDWEKFVRMVDPHARFVIGEFDNHGRETFVKELLELRVHIRDSRIREIDVQGEKIRMHTQIDFEIDVDGVRHRREHSFHFIVLKIDGRWSVQQLRIK | 0.64
DEDKHVVEEFEKLMSHSMATGDEESLLRLADPNTRIVIGDKELHGMDLYLRWHVQHWRELGVDRVKVEVRVRDVRVVDGKVHVIGELIFRFDGRTQSHDVELEIVKINGKWVLKQINLK | 2.25
SEEKEEVKEVVEHVLEVMLTGDEEHSRELVDPHVRIEVGDKSRHGRDDMAHWLSHARIHRLHIKRSEVIGDYLHIDVHIDVEYNGKRMTTDVRRHELKVDGRWFIREERIE | 1.42
DEEKEELEKATEEWVHFMRTGDEDSLIKNLDPNVKNIFNGKEEIGREDLSHFIKHMGAKVVRIEDIKTQGDKVIIDTRIEVGDKHFEVTLYFEKINGRWFLHSVEIR | 0.512
DDKDEILLKLAKIVFENELTGDEESLEHLFDPNTRRIVNGKELVGWELISKYWKEQKKEMRVELRLRRHDIQGDKTRVRGEEILEIGEFKLILDVEITIVVINGRFTRIEIRVK | 0.185
DDHEKLSEEHMRFIRHAIKTGDEETLKELADPDMRINVNGRLFHGWEHFFKIWEHIRRHLRFKDYDIHDFEIYGDKIHADTRVKSRVNGVERIITTEVLIMKVDGRWYNHEVRLH | 0.71
SDLDKLAIKIAKILVKNLETGNEKMLEHLLDPHVKLHIDGVTFIGREEVNKWVKHELDEMRSRWEVHDRRTQGEYAHTDSRMYLHINGKDIEIEVTIIFNVVNGRVTFIEHRIH | 0.084
SEKERMIREMLEETMRSLKTGDEDSIHRLFDPHTRSEIDGKEYHGREEVSKWVRHARIHDFQLEDVRIQGNKAILIGVMHGRVDGRKFTTEVRIFSVKVDGQWVNENLELH | 0.993
SEEDEKSHKLWEEMLEIFMTGDWKRESELADPEARRVFIVDGVNHVFHGRETITEALLRWHKEMRVHDFKLHDRRYQGEKFHVDGIVDGEYNGKKRIYEVEIIIIVVDGRVHSLEFEHK | 0.296
DEIEELSNRLLELLRHFLQTGDEDMLRKLMDPHVRIDIDGQDFHGRESAVKLLRFWIDHMRWKDRRLRHVRIQGNFIEIDTIEHGEINGREHDLTTHIIASKVNGRWVLHSILFR | 1.81
DEEHNLSEEAMRHFFETVRTGDEELIYRLLDPNARVQINGKEHHGREDVWEFLWRNYMRADHVEVKVHHVEVQGEKVIIDLRLHVTINGKDLEIRLVLIIHKYNGRWHITELRIL | 0.555

Sequence | protease stability score
SEDDEKVREAFELWARLVLTGDEEIIEKMVDPHMRIEIGDKELHGRDELRRWIREIRIRDIDVHDVRVQGDKAESDLKVRMDIDGVETRRHTHLIMHKFDGRWIIESIDVR | 1.36
DETKEQSDEFIRIWVKARRTGDEHKLRRLIDPNVRVLINGKDLIGMDRALEIIEMFRKEFGIDHMHFTVRHVDIFNGVAISDFKVEINFNGREHEFTTHLVNLKIDGVWHTHSMEFH | 0.546
DDKDEKSKKWAEMFIHLIETGDEERIRELLDPDVRVEIGDKEIHGRERWLEWERRMRDKYKNLRFRIEHHHIQGDKVHIRTEREIGDKSLDIRIEIIIYNGRAKEFHIDIR | 2.87
SDEEKFMHEMYELILKALHTGDEEFLEHFADPNTRLHINGRERHGRDEMKEFFKKFLDHWRIERFHVRSVEIFDGRVTSDTEIRGNIDGVRSEHRTDINIVIVNGRLKEINIHIE | 0.537
SEEEDHAKEMFRILIENLITGDEDTLRKLIDPDVRFIYGDKLHVGWKDFREWQHRMDRRVKNMKIHVRDMRVYNGVSHAETEEHYNGKTVETEVHFKVIDGQLKHLEIRIH | 0.188
DEDKDLIDLHFEIYQQVVLTGDFRKFRRLFDPNTRWEIGDKEFHGREHLSKLHKDLLEHLGVRVREVELHNFHIQGDKIHLDTRIHVHAENHHMIHITEIISTKIDGRWIITELRLR | 0.826
SELDEYMHRMMKWILEEEITGDEERFLHLADPHVRSRIDVGEWKWDHHGRDAIRVYREQVDHITHVKVSNFHVQGDKAISDVHEEVRVGDKHVIRRIEIIVIVIDGKVHSIELEIK | 0.357
SEREESFEKWVEMYERALQTGDEEHISRLMDPNARSNINGVELHGREQTLEWLRHVKENLGVERVDVRVNLHRYRVIGNYIESDQELILIYNGREFRFHFHFIARKINGRWVVDRLEIK | 2.51
DEMDHWVMEMFEHLLKLFLTGDEEKWERLADPNVKTRFIINGKDVRLHGREHFKKLVDELRITSVDLRDIRAVGNKAEVEGRVEGEFDGQTHILDMRVRFEIINGKLKKEEYVIR | 1.27
SEHDEHLQRNWERFLHHIETGDWRDHEENADPHARVHIGEFDLHGREKFSELFMRLGVKHIEIQRLIVQGDKITADTVVHYGDKRLKTNIFVTKINGRWQLHSIEMR | 1.42
DEDTHKLDKHVKEVLTAWETGDEEMLLRLIDPDARITIGDKEVIGMEEALKHWKEIRIKHLELTDFKLVDGQLDSKVQVHSEVNGRRFETTIRIVLHKINGKWRIRSMTFI | 1.34
DEEEHVAWKIMEVFLEDLLTGDEDMLNRMADPHVRVIINGRENHGRESFEEFVRQIRIEDTRLKHVEIRTIGNKIHIYVHGELRLNINGKRIDRKTTWIFVIQKYDGRWILRFILIDIH | 2.31
DHEERNIEDFLRELLHSLITGDEHTYRRLMDPNMQLFVDGRTFVGWKEALKWYQEILRRIDVIENIEIEQFSVFDGRVFVRVHLHMRVGDKTHHSFVHILLVKINGKWRLEEHEVV | 1.79
SEDEEMIRELAEIFIKNWETGDEEDRWKLMDPNARIEVNGKQNHGREEDERHSKELGFKHIEVRIKRSRIVGDKAEIDGELYMRYDGKTEHVKVHIHVQIVDGRIKIVSFKIR | 1.31
DHEEKHMIKIARLILLLWFTGDEDTFSRLADPNVRVIIIWNGKEIHSHGMERFSEDRKRHEEEMRLKDFRIDEVRAVGDKIHMRVTIHLIQGDKEREIDLEIRIVLVNGKLKTIEFIFH | 2.63
HELQEEATRFIKEFQEAVRTGDWRLWKKQLDPHVRLDIDGRHYHGRDIVLEFLRELEDKMGIERENVHIEHIDFQGDKVIVHSKEHGIVNGQRFDDKSSSIVLKINGQWTLHSVKIR | 1.19
TELEKLLKEMSDIIHHAWRTGDEHLVRNLADPNVRFHTQIDGRNDERWGREEMEKALHDWLRHFGVKHIIDKSIELQGDKITIKGHVDVDGVKIDVRIFLIVVNGKLKTMKIEHD | 1.19
DEDDRVAEHALRLLFELLRTGDWEHILEMFDPNMRLDFDGKKWHGRESFRELFTRFLEEIRIHDVKVEDFKVFDGRVEVDTRIRGKYGDKETKLETKIVALKINGRWVLESSHYN | 0.898
EEEEEKQERALRWFLHIIETGNEELLHRLLDPNVQVEIGDKRFHGWKHLLMVFNDLGVKHVELRDFTIINGVIRNEILLRVGDKENLTILILRKVDGKWQLERFNLQ | 1.79
SEREKESERLWRLSAEVMETGDESMSLKEFDPHYRVLFDGQDFHGREQWKEFLERFDHEALKRFHEKRDDRQGDKAIHEGDLDLVLNYGDKQLRTRRDVIFYITKVNGKWMIKIVEFV | 0.084
SEDIELVHNIMEHMAKAFTTGDERHLLNLFDPNVRFMINGQNYVGWEHLINWIEHIRIKRVDLRINDVKLIGDKLHIHGRFIVRGQIDGREIDRVEDTRINFQKINGRWIIEELHFV | 2.61
DEDDHFWERLTEIILHILQTGNEEALHRMLDPHMRLDYNGRSFHGRELAQKALMRFWEDLGVDHIRVKDRRVQGDKVHLHGEIIIDGRLHETREHWLIVNGRIKHVRLEIR | 0.696
DQEEREDRKILKLLVELWRTGNEEVLEHLLDPNVKMRLEFEGREDSAHGRESMIEMLRRVWKVLGIKHERLESVHVFDGVVIITMRLSVDGREQDIQLLFFVYDGRIKSIVIRVRDR | 1.45
SEDEEFFKKALDLVFEYNRTGDERSMNELADPHVKVDINGVTLHGWEEFSRHLRELRLKTFKLDDLDSQGDKIITKGVFHHHINGRTIDLDVIIFTRKINGRWVLEKVEFK | 1.35
DHEDERETWAYHMLIHAFRTGDERIHEELLDPNVRTDVDGRTSHGWENVVKLVHHVLRLLGIDHIRLRRSDVVDGRVYMQGDIRVNGRTIETRVTIQVINGRVHSWSVRAE | 1.6
